Laboratory results as given in patent US20130189255A1, “FUSIONS AND CONJUGATES OF INSULINOTROPIC AGENTS” (GLAXO GROUP LIMITED, priority 2008, published 2013).

Target: human GLP-1 receptor (human) (UniProt P43220)
Assay: cell-based or functional assay

Sequence of human GLP-1 receptor (human) (P43220 24-463): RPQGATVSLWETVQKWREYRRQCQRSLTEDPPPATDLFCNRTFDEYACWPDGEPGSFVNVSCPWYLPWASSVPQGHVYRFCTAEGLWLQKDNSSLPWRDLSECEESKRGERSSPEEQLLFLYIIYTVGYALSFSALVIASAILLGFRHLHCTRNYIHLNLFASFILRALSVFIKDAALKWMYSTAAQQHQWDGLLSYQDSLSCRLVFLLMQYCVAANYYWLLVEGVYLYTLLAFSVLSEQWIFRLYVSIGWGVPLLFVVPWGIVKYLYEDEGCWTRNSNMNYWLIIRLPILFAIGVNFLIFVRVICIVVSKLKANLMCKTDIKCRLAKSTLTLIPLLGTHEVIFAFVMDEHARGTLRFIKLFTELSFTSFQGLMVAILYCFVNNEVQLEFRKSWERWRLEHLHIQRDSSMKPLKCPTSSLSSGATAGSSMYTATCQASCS

GLP-1R BA (10 uM albumin) EC50 (pM) n = 2 (CRE-luciferase reporter in CHO 6CRE GLP1R cells): 19 pM | GLP-1R BA EC50 (pM) n = 3 (CRE-luciferase reporter in CHO 6CRE GLP1R cells): 21 pM
Substance: GLP-1 7-36 (from UniProt P01275 21-180) (peptide)
